Reference: patent US6403765B1, “Truncated Apaf-1 and methods of use thereof” (Thomas Jefferson University, priority 1998, dated 2002)
Values belong to the molecule of their own block, whether it stands above or below them.

Experiments:
MCF-7 cells = experiment: Inhibition of apoptosis in transfected MCF-7 cells; format: cell-based; details: apoptosis induced by UV, Fas agonist antibody, TRAIL, or overexpression of DR4 and DR5, FIG. 17
From the text: To express the caspases or truncated Apaf-1 in mammalian cells and assay their apoptotic activity, they were amplified with the T7-tag primer and reverse primers using the pET28a constructs as templates, and subcloned into the mammalian double expression vector pRSC-LacZ (MacFarlane et al., J. Biol. Chem., 272:25417-25420, 1997; Tsang et al., Bio/Technology, 22:68, 1997) or as previously described (Li et al., Cell 91:479-489, 1997; Srinivasula et al., J. Biol. Chem., 272:18452-18545, 1997). This vector allows the expression of lacZ under the Rous Sarcoma virus promoter, and the test cDNA under the CMV promoter. To assay for apoptosis, MCF-7 or 293 cells were transfected, using the method commercially available as the Lipofect Amine method (Life Technologies, Inc.), with the pRSC-LacZ constructs in the presence or absence of different apoptosis-inhibitors. 30 h after transfection cells were stained with β-galactosidase and examined for morphological signs of apoptosis. The percentage of round blue apoptotic cells (mean±SD) were determined by phase contrast microscopy and then represented as a function of total blue cells under each condition (n≧3).

T7-tagged Apaf-530 = biological target: T1, T7-tagged Apaf-530 (Homo sapiens, UniProt O14727); experiment: Co-immunoprecipitation of Flag-tagged Apaf-1 variants with T7-tagged Apaf-530 in 293 cells; format: binding; details: anti-Flag immunoprecipitation, anti-T7 blot, 36 hours, FIG. 11
T1 construct: expressed in transfected cells; host or cells: 293 cells
T1 sequence (O14727 1-530 isoform O14727-3): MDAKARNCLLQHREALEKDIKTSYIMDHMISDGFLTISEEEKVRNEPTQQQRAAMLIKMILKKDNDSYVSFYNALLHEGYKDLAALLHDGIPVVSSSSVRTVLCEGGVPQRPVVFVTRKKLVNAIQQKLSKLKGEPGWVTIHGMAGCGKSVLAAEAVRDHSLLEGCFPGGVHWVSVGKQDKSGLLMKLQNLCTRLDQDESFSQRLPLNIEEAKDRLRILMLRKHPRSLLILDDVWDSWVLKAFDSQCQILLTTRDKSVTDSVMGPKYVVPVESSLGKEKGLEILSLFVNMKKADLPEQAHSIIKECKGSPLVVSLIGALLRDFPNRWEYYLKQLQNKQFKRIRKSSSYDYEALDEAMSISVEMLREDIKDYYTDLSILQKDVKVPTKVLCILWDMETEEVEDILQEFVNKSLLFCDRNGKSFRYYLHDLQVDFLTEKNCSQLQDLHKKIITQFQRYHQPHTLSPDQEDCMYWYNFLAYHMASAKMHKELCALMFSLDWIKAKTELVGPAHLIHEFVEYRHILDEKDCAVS
Protocol: The ability of APAF-530 to oligomerize pro-caspase-9 was tested. Co-transfection experiments in 293 cells were performed with T7-tagged Apaf-530 and different Flag-tagged Apaf-1 variants, and cell lysates were prepared and immunoprecipitated with an anti-Flag antibody. The immunoprecipitates were analyzed by Western blotting with an anti-T7 antibody.
In FIG. 11, 293 cells were co-transfected with constructs encoding T7-tagged Apaf-530 and an empty vector (lane 1) or constructs encoding Flag-tagged Apaf-1 (lane 2), Flag-tagged Apaf-530 (lane 3), Flag-tagged Apaf-530ΔCARD (lane 4) or Flag-tagged Apaf-97 (lane 5). After 36 hours, extracts were prepared and immunoprecipitated with a monoclonal antibody to the Flag epitope. The immunoprecipitates (upper panel) were analyzed by SDS-PAGE and immunoblotted with a horseradish peroxides-conjugated T7 antibody. The corresponding cellular extracts were also analyzed by SDS-PAGE and immunoblotted with a horseradish peroxides-conjugated T7 antibody (middle panel) or an anti-Flag antibody (lower panel).

T7-tagged Bcl-xL = biological target: T2, T7-tagged Bcl-xL (Homo sapiens, UniProt Q07817); experiment: Co-immunoprecipitation of Flag-tagged Apaf-1 variants or procaspase-9 with T7-tagged Bcl-xL in 293 cells; format: binding; details: anti-Flag immunoprecipitation, anti-T7 blot, 36 hours, FIG. 16
T2 construct: expressed in transfected cells; host or cells: 293 cells
Protocol: In vivo interaction experiments between Apaf-1 variants and Bcl-xL were performed. To analyze the ability of Apaf-1 to interact with Bcl-xL, 293 cells were co-transfected with constructs encoding T7-tagged Bcl-xL and constructs encoding Flag-tagged Apaf-97 (FIG. 16, lane 1), Apaf-1 (FIG. 16, lane 2), Apaf-530 (FIG. 16, lane 3) Apaf-530ΔCARD (FIG. 16, lane 4), or procaspase-9 C287A (FIG. 16, lane 5). After 36 hours, extracts were prepared and immunoprecipitated with a monoclonal antibody to the Flag epitope. The immunoprecipitates (FIG. 16, upper panel) were analyzed by SDS-PAGE and immunoblotted with a horseradish peroxidase-conjugated T7 antibody. The corresponding cellular extracts were also analyzed by SDS-PAGE and immunoblotted with a horseradish peroxides-conjugated T7 antibody (FIG. 16, middle panel) or an anti-Flag antibody (FIG. 16, lower panel).

procaspase-9 = biological target: T3, procaspase-9 (Homo sapiens, UniProt P55211); experiment: In vitro caspase 9 activation assay: recombinant Apaf-1 variants incubated with in vitro translated procaspase-9; format: biochemical; details: bacterial lysates with truncated Apaf-1 variants, FIG. 2B
T3 construct: schematic representation of full length procaspase-9; made in house; host or cells: coupled in vitro transcription/translation in rabbit reticulocyte lysate (TNT Kit, Promega)
T3 sequence (P55211 1-416): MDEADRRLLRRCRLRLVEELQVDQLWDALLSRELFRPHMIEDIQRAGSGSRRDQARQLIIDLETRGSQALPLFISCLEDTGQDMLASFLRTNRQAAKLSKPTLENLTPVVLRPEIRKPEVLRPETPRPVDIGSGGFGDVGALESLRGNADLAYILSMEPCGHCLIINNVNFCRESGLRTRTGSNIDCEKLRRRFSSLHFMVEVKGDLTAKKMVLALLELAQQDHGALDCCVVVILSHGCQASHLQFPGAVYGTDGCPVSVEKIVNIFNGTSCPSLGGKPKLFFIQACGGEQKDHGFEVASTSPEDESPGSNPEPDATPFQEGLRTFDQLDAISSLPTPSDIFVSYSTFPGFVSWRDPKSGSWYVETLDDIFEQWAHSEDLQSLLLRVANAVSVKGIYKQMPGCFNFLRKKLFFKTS
Protocol: SDS sample buffer was then added to each sample, boiled and subjected to SDS-PAGE analysis followed by autoradiography. In FIG. 2A procaspase-9 was in vitro translated in the presence of ^35S-methionine. Following translation procaspase-9 was desalted by gel filtration through a biospin column (BioRad) to remove unincorporated methionine and free nucleotides. Desalted procaspase-9 was then incubated with 200 ng Ni^2+-affinity purified bacterially expressed recombinant Apaf-530 (WT or K149R mutant) in the presence or absence of cytochrome c or dATP or both for 2 h at 30° C. A mock sample containing Ni^2+-affinity purified material from bacteria transformed with an empty vector was used as a negative control. Following incubation the products were analyzed by SDS-PAGE and autoradiography. In FIG. 2B^35S-labeled procaspase-9 (as described above) was incubated with bacterial lysates containing truncated Apaf-1 variants as indicated and then analyzed as above (2B upper panel). The bacterial lysates were analyzed by SDS-PAGE and immunoblotted with an Apaf-1 antibody which recognizes the N-terminus of Apaf-1 (lanes 2-6) and an anti T7-tag antibody (lanes 7-8) to confirm expression and equivalent concentration of the different Apaf-1 variants (2B lowerpanel). The molecular mass markers are indicated to the right of the lower panel.
^35S-labeled caspases were obtained by in vitro translation in the presence of ^35S-methionine using a coupled transcription/translation system in rabbit reticulocyte lysate using TNT Kit (Promega) according to the manufacturer's recommendations.
To determine the role of the WD-40 repeat in the mechanism of Apaf-1-induced processing of procaspase-9, truncated Apaf-1 (Apaf-530) lacking its WD-40 repeats (FIG. 1) was expressed and purified. To reconstitute a recombinant caspase-9 activation system, the truncated Apaf-530 was incubated with in vitro translated recombinant procaspase-9 in the presence or absence of cytochrome c and dATP. […] It was previously shown that mutation of CED-4 K165R which is required for nucleotide binding destroys its activity (Chinnaiyan et al., Nature 388:728-729, 1997; Jarnes et al., Curr. Biol. 7:246-252, 1997; Seshagiri and Miller, Curr. Biol. 7:455-460, 1997). […] Therefore, either binding of Apaf-1 to cytochrome c and dATP or deletion of the repeats could induce a conformational change enabling Apaf-1 to bind and process procaspase-9.
In FIG. 3, ^35S-labeled WT or mutant D330A, D315A or C287A mutants of procaspase-9 or prodomainless procaspase-9 (Δpro, residues 134-416) were incubated with buffer (lanes 1, 4, 7, 10, 13), purified Apaf-530 (lanes 2, 5, 8, 11, 14) or mock purified material (lanes, 3, 6, 9, 12, 15) and then analyzed by SDS-PAGE and autoradiography.

T2 sequence (Q07817 whole entry): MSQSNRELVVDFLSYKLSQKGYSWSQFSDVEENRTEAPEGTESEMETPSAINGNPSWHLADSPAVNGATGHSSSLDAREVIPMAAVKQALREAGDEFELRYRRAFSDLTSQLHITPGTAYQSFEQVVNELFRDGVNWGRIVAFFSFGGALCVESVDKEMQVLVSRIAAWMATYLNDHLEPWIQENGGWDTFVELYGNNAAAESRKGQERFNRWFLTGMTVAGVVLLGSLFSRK

Molecule: Bcl-xL: Bcl-xL expressed from a transfected construct as apoptosis inhibitor comparator [reference compound]
inhibition of apoptosis (MCF-7 cells): inhibition

co-immunoprecipitation with T7-Apaf-530 (T7-tagged Apaf-530): co-immunoprecipitated
co-immunoprecipitation with Bcl-xL (T7-tagged Bcl-xL): capable of immunoprecipitating Bcl-xL
B1: Apaf-1: full length Apaf-1, 1194 amino acids (protein)
chain: MDAKARNCLLQHREALEKDIKTSYIMDHMISDGFLTISEEEKVRNEPTQQQRAAMLIKMILKKDNDSYVSFYNALLHEGYKDLAALLHDGIPVVSSSSVRTVLCEGGVPQRPVVFVTRKKLVNAIQQKLSKLKGEPGWVTIHGMAGCGKSVLAAEAVRDHSLLEGCFPGGVHWVSVGKQDKSGLLMKLQNLCTRLDQDESFSQRLPLNIEEAKDRLRILMLRKHPRSLLILDDVWDSWVLKAFDSQCQILLTTRDKSVTDSVMGPKYVVPVESSLGKEKGLEILSLFVNMKKADLPEQAHSIIKECKGSPLVVSLIGALLRDFPNRWEYYLKQLQNKQFKRIRKSSSYDYEALDEAMSISVEMLREDIKDYYTDLSILQKDVKVPTKVLCILWDMETEEVEDILQEFVNKSLLFCDRNGKSFRYYLHDLQVDFLTEKNCSQLQDLHKKIITQFQRYHQPHTLSPDQEDCMYWYNFLAYHMASAKMHKELCALMFSLDWIKAKTELVGPAHLIHEFVEYRHILDEKDCAVSENFQEFLSLNGHLLGRQPFPNIVQLGLCEPETSEVYQQAKLQAKQEVDNGMLYLEWINKKNITNLSRLVVRPHTDAVYHACFSEDGQRIASCGADKTLQVFKAETGEKLLEIKAHEDEVLCCAFSTDDRFIATCSVDKKVKIWNSMTGELVHTYDEHSEQVNCCHFTNSSHHLLLATGSSDCFLKLWDLNQKECRNTMFGHTNSVNHCRFSPDDKLLASCSADGTLKLWDATSANERKSINVKQFFLNLEDPQEDMEVIVKCCSWSADGARIMVAAKNKIFLWNTDSRSKVADCRGHLSWVHGVMFSPDGSSFLTSSDDQTIRLWETKKVCKNSAVMLKQEVDVVFQENEVMVLAVDHIRRLQLINGRTGQIDYLTEAQVSCCCLSPHLQYIAFGDENGAIEILELVNNRIFQSRFQHKKTVWHIQFTADEKTLISSSDDAEIQVWNWQLDKCIFLRGHQETVKDFRLLKNSRLLSWSFDGTVKVWNIITGNKEKDFVCHQGTVLSCDISHDATKFSSTSADKTAKIWSFDLLLPLHELRGHNGCVRCSAFSVDSTLLATGDDNGEIRIWNVSNGELLHLCAPLSEEGAATHGGWVTDLCFSPDGKMLISAGGYIKWWNVVTGESSQTFYTNGTNLKKIHVSPDFKTYVTVDNLGILYILQTLE
modifications: left off: small tags and cut ends
notes: full length Apaf-1, 1194 amino acids

activity of the Apaf-1 variant in promoting activation of procaspase-9 (procaspase-9): inactivated
co-immunoprecipitation with T7-Apaf-530 (T7-tagged Apaf-530): co-immunoprecipitated
co-immunoprecipitation with Bcl-xL (T7-tagged Bcl-xL): capable of immunoprecipitating Bcl-xL
B2: Apaf-530ΔCARD: truncated Apaf-1, residues 98-530, CARD domain deleted (protein)
chain: SVRTVLCEGGVPQRPVVFVTRKKLVNAIQQKLSKLKGEPGWVTIHGMAGCGKSVLAAEAVRDHSLLEGCFPGGVHWVSVGKQDKSGLLMKLQNLCTRLDQDESFSQRLPLNIEEAKDRLRILMLRKHPRSLLILDDVWDSWVLKAFDSQCQILLTTRDKSVTDSVMGPKYVVPVESSLGKEKGLEILSLFVNMKKADLPEQAHSIIKECKGSPLVVSLIGALLRDFPNRWEYYLKQLQNKQFKRIRKSSSYDYEALDEAMSISVEMLREDIKDYYTDLSILQKDVKVPTKVLCILWDMETEEVEDILQEFVNKSLLFCDRNGKSFRYYLHDLQVDFLTEKNCSQLQDLHKKIITQFQRYHQPHTLSPDQEDCMYWYNFLAYHMASAKMHKELCALMFSLDWIKAKTELVGPAHLIHEFVEYRHILDEKDCAVS
modifications: left off: small tags and cut ends
notes: truncated Apaf-1, residues 98-530, CARD domain deleted

activity of the Apaf-1 variant in promoting activation of procaspase-9 (procaspase-9): inactivated
co-immunoprecipitation with T7-Apaf-530 (T7-tagged Apaf-530): not
co-immunoprecipitation with Bcl-xL (T7-tagged Bcl-xL): not
B3: Apaf-97: truncated Apaf-1, residues 1-97, entire CED-4 homology region deleted (protein)
chain: MDAKARNCLLQHREALEKDIKTSYIMDHMISDGFLTISEEEKVRNEPTQQQRAAMLIKMILKKDNDSYVSFYNALLHEGYKDLAALLHDGIPVVSSS
modifications: left off: small tags and cut ends
notes: truncated Apaf-1, residues 1-97, entire CED-4 homology region deleted
